According to patent US20220073643A1 (NANJING GENSCRIPT BIOTECH, published 2022):
Residue numbers refer to the chain shown, from its start. “And” between values parts separate entries of the source, which are not always exact repeats. Equal entries are not always repeated. Where two headings read alike, the source gives them in different places.

B1: chimeric 410H6H3 (antibody, human IgG1, kappa, V domains shown)
VH: DVLLVESGGGLVQPGGSRKLSCAASGFTFSSSGMHWVRQAPEKGLEWVAYISSGSNTIYYADTLKGRFTISRDNPKNTLFLQMTSLRSEDTAMYYCARIYYGNSFVYWGQGTLVTVSA
VL: DIVMTQSPSSLTVTAGEKVIMSCKSSQSLLNSGNQKNYLTWYQQKPGQPPKMLIYWASTRESGVPDRFRGSGSGTDFTLTISSVQAEDLAVYYCQNNYYYPLTFGTGTKLALKR
notes: chimeric, human IgG1/kappa constant regions; also called 410H6H3-Chimeric
B2: chimeric 412B6E4 (antibody, human IgG1, kappa, V domains shown)
VH: DVQLVESGGGLVQPGGSRKLSCAASGFTFSSFGVHWVRQAPEKGLEWVAYISSGSSTIYYAHSVKGRFTISRDNPKNTLFLQMTSLGSEDTATYYCARFYYGNSFAYWGQGTLVTVSA
VL: B1 VL with I20T, R69T, N97A, Y99T, T106A, K109R, A111E
notes: chimeric, human IgG1/kappa constant regions; also called 412B6E4-Chimeric
B3: chimeric 419B5G9 (antibody, human IgG1, kappa, V domains shown)
VH: DVQLVESGGGLVQPGGSRKLSCAASGFTFSTFGMHWVRQAPEKGLEWVAYISGGSTTIFYADTVKGRFTISRDNPKNTLFLQMTSVRSEDTAMYYCARFYYGNSFAYWGPGTLVTVST
VL: B1 VL with I20T, R69T, N97A, Y99S, T106A, A111E
notes: chimeric, human IgG1/kappa constant regions
B4: IMAB362 analog (Claudiximab, Zolbetuximab) (antibody, V domains shown)
VH: QVQLQQPGAELVRPGASVKLSCKASGYTFTSYWINWVKQRPGQGLEWIGNIYPSDSYTNYNQKFKDKATLTVDKSSSTAYMQLSSPTSEDSAVYYCTRSWRGNSFDYWGQGTTLTVSS
VL: DIVMTQSPSSLTVTAGEKVTMSCKSSQSLLNSGNQKNYLTWYQQKPGQPPKLLIYWASTRESGVPDRFTGSGSGTDFTLTISSVQAEDLAVYYCQNDYSYPFTFGSGTKLEIK
notes: in-house prepared analog; chimeric IgG1

Experiments:
[1] = target: human Claudin18.2 (human); assay: cell-based or functional assay
[2] = target: human Claudin18.2 (human); assay: cell-based or functional assay; remark: listed apart in the source
[3] = target: T1, human Claudin18.2 (human); assay: FACS, Claudin18.2-HEK293 cells
T1 construct: also called CLDN18.2

[4] = target: T1, human Claudin18.2; assay: FACS, Claudin18.2-HEK293 cells; remark: listed apart in the source
Description: (§1) The binding of chimeric antibodies to Claudin18.2 expressed on HEK293 cells was determine by FACS analysis. Briefly, HEK293 cells expressing human Claudin18.2 as prepared in the foregoing Example were harvested and incubated with anti-Claudin18.2 mAbs at 4° C. for 40 min, followed by fluorophore (iFluor 647)-labeled goat […] IgG (H+L) secondary antibodies at 4° C. for 0.5 hour. The samples were then analyzed by flow cytometry.

[5] = target: T1, human Claudin18.2; assay: FACS, Claudin18.2-HEK293 cells; remark: listed apart in the source
Description: as §1

| Binder | CDC % Relative activity [1] | CDC EC50 [1] | ADCC % Relative activity [2] | ADCC EC50 [2] | EC50 [3] | Span [3] | EC50 [4] | EC50 [5] |
| --- | --- | --- | --- | --- | --- | --- | --- | --- |
| B1 | 2810% | 0.0756 µg/mL | 677% | 0.0039 µg/mL | 0.843 µg/mL | 79100 | 0.778 nM |  |
| B2 | 2020% | 0.105 µg/mL | 535% | 0.00494 µg/mL | 0.555 µg/mL | 87900 | 0.677 nM |  |
| B3 | 2000% | 0.106 µg/mL | 332% | 0.00794 µg/mL |  |  | 1.23 nM |  |
| B4 |  | 2.7 µg/mL and 2.3 µg/mL and 2.12 µg/mL |  |  |  |  | 0.517 nM | 0.596 nM |
